These results are taken from patent publication US20220331453A1 (INDUSTRY UNIVERSITY COOPERATION FOUNDATION HANYANG …, published 2022).

In this assay the target is T1, VEGFR1 (Flt1) on the membrane of HUVECs (human, UniProt P17948 27-1338).
T1 construct: whole, on cells; Endogenous receptor on HUVECs; also called fms-like tyrosine kinase-1
Kind of assay: fluorescence imaging of HUVECs with dye-conjugated cage. Here is the method:
HUVECs were spread onto a 48-well plate at 4×10⁴ cells/well and then cultured overnight. The HUVECs were incubated with 50 ng/mL human recombinant rhVEGF₁₆₅ and dye-conjugated fusion protein cage at different concentrations for 15, 30 and 60 minutes at 37° C. The HUVECs were imaged in a […] (Zeiss, Oberkochen, Germany) using FITC.
A maleimide-modified fluorescent dye was conjugated at the thiol of HPC, and the conjugation of the fluorescent dye to the polypeptide was qualitatively identified by SDS-PAGE. The fluorescent dye-conjugated anti-Flt1-HPC4-EBPP[A₁G₄I₁]₆-PEDF 34-mer-EBPP[A₁G₄I₁]₆-HPC5 was visualized by exposure to UV light on SDS-PAGE without gel staining. In FIG. 5 (A) (b), the location of the dye-conjugated polypeptide is compared under UV light with that of a marker in a bright-field mode. The location corresponded to that of the fusion polypeptide on the copper-stained SDS-PAGE gel prior to the dye conjugation (FIG. 5 (A) (a)). The conjugation of the dye to anti-Flt1-HPC4-EBPP[A₁G₄I₁]₆-PEDF 34-mer-EBPP[A₁G₄I₁]₆-HPC5 was confirmed from the fluorescence spectrum. […] HUVECs were spread onto a […] plate and then cultured overnight. The HUVECs were incubated with 1 μM or 10 μM dye-conjugated polypeptide for 15, 30 or 60 minutes. […]

T1 sequence (P17948 27-1338): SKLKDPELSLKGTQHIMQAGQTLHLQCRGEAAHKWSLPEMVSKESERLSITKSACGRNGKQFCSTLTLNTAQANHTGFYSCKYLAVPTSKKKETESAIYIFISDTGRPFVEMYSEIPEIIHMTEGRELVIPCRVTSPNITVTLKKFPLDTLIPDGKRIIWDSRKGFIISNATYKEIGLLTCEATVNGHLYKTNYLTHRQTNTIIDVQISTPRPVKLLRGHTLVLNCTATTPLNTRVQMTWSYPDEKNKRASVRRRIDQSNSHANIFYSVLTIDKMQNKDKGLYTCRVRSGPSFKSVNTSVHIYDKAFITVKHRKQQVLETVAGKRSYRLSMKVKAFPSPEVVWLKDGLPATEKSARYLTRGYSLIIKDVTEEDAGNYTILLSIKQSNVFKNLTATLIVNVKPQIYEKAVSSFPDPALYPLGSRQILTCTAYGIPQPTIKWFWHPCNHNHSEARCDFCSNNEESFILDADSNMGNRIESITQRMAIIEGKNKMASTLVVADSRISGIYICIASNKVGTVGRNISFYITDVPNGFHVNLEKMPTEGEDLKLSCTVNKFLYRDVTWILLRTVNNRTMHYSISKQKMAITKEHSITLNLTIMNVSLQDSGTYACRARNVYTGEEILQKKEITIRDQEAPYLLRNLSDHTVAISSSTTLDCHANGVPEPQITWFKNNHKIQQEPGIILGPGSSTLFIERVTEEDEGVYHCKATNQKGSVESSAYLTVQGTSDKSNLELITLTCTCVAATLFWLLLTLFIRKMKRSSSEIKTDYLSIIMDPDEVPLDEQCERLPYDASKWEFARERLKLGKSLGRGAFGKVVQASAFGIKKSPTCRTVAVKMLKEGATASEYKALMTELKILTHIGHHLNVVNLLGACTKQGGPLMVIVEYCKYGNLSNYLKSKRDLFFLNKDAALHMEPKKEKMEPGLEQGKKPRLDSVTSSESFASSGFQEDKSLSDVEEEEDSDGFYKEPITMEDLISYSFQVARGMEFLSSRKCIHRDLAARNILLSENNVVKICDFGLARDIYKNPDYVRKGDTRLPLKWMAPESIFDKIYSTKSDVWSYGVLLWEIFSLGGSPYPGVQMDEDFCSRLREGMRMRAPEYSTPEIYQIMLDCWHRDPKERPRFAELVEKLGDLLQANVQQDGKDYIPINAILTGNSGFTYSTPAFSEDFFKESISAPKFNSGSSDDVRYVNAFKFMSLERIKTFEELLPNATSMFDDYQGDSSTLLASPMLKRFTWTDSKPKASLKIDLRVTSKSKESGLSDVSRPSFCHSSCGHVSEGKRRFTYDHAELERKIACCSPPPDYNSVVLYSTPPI

B1: fluorescent dye-conjugated anti-Flt1-HPC4-EBPP[A1G4I1]6-PEDF 34-mer-EBPP[A1G4I1]6-HPC5 (designed binder)
chain: GNQWFISSQIRQNYSTDVEAAVNSLVNLYLQASYTYLSLGFYFDRDDVALEGVSHFFRELAEEKREGYERLLKMQNQRGGRALFQDIKKPAEDEWGKTPDAMKAAMALEKKLNQALLDLHALGSARTDPHLCDFLETHFLDEEVKLIKKMGDHLTNLHRLGGVPAGGVPAAGVPAGGVPAGGVPAIGVPAGGVPAGGVPAAGVPAGGVPAGGVPAIGVPAGGVPAGGVPAAGVPAGGVPAGGVPAIGVPAGGVPAGGVPAAGVPAGGVPAGGVPAIGVPAGGVPAGGVPAAGVPAGGVPAGGVPAIGVPAGGVPAGGVPAAGVPAGGVPAGGVPAIGVPAGGDPFFKVPVNKLAAAVSNFGYDLYRVRSSTSPTTNVPAGGVPAAGVPAGGVPAGGVPAIGVPAGGVPAGGVPAAGVPAGGVPAGGVPAIGVPAGGVPAGGVPAAGVPAGGVPAGGVPAIGVPAGGVPAGGVPAAGVPAGGVPAGGVPAIGVPAGGVPAGGVPAAGVPAGGVPAGGVPAIGVPAGGVPAGGVPAAGVPAGGVPAGGVPAIGVPAGGPEAGLGEYLFERLTLKHD
modifications: Alexa Fluor 488 C5 maleimide conjugated at cysteine (thiol of HPC) via thiol-maleimide reaction
notes: also called dye-conjugated fusion protein cage; dye-conjugated polypeptide
On to B1, for which the binding result is on record as “binds”.
